Measurements: PMC12893043

Biological target: GFP(+36)
Test: time-resolved fluorescence anisotropy; AfFtn-GFP(+36) assembly at pH 7.6 with 500 mM NaCl and with 175 mM NaCl; [GFP] = 1 uM; biexponential fit (instrument response, rotational diffusion of the assembly), no homoFRET; triplicate

AfFtn (from UniProt O29424 1-173)
stoichiometry N: 12 to 1
